Source: the DeepSol protein solubility set

Assay: soluble on expression in E. coli; label from the status in PepcDB or PDB records

Sequence | soluble on expression in E. coli
MTKQREKLIEVKNVKQHFDVSGGVVKAVNDISFDIYRGETFGLVGESGCGKSTTGRTIIRLYDATAGEVLFDGENVHGKKSRAELKKFNRKMQMIFQDPYASLNPRMTVGDIIAEGIDIHGLAKNKKERMDRVHELLNTVGLNKEHANRFPHEFSGGQRQRIGIARALAVEPEFIIADEPISALDVSIQAQVVNLLKKLQKEKGLTYLFIAHDLSMVKYISDRIGVMYRGQIVELTTSDELYANPIHPYTKSLLSAIPLPDPDYERNRKRIVYDPSQHNYGSEEPTMREIRPGHFVLCSEAEYKKYKEIYQ | not soluble
SLRDSFHFKTYRKRRICPTMTLVLDLDETLIYCTKKRKYHYQKEVDVLINGKYLPLYVCKRPYIDLFFSSLYPFYEIIIFTTAIKSYADTVLNIIDVDHYIDKKFYREDCYEMNEKLYIKNLTNIKKELSKIILIDDSNISGFQYPDNFFPIKKWQGDLNDNELLHLIPFFLNLRKLKDIRSLCSFRLISQKDVSKLLCTSS | not soluble
MGSDKIHHHHHHMNHLLKQAKRVASECECGHEHQWIEMDELQLGRNAINYLPEYLHEKGLLHVTIVADANTYAVAGQLVAQLLKGRGIDVENCILKEQGALTLLADEHGLGQLVIGAAKETDVFLAVGAGTIHDLTRIASYKFGKPFIAIPTAPSVDGFTSMGAPVIRDGVKITFQTQAPIALFADLDFLTQAPRSMVAAGFGDMLGKSTSLVDWQVSHMLNDEPFCPAVFHMTKSALTMCMEHADEIAACNEQGIRLLTEALIMSGLAMLIFGHSHPASGAEHHLSHYWEMAFLRSGGTQPLHGAKVGYATMLISALYKNEARKKIETFQGEGSPLVNSIHKHRERLLMLIDTIPESSDIQRLLESVGGAVKSADLALADSLEDEALEKAHKLRERCTLLYCLNEHLKTS | not soluble
FGKVGYATNLTYTANRNKIMKMVHDYKNPSDGSLFSITELTLQDKGGVYLREKDAIGDVYVKGILARGKDGKLIEEEGGYKVDRSQRIKIGSVNPDFSIGWRHNVTWNNITLDLLFNGRFGGIVTSSTQAFLDDYGVSKDTYKARQNGGVWVNGTQYDAEKYYTTIGGEQLMAYYAYKATNIRLQEASLSYTLPGKWFGNVINRLTVSAIGRNLWMIYNKAPFDPEMTSSTGTYNRGDVFMPPSLRSVGFSVKIEL | not soluble
MRKLISTIIVSTLLIGGCSTVHKEAKHSSQSIPEEVPASQYKGQGFQPVAEKSAIAHAKKYREEYEKLGEQFFKDNFSLNVKATNVVGSGDGVEVYVHCDDHDIVFNASIPFDKEAIHEEGSMRSNDNGDTMSNMVGTVLSGFEYKAQKEKYDNLTKFFKDNEEKYQYTGFTKEAIHKTQNVGYQNEYYYLAGNVTNINNYRKYYEPLIKKDSKNFKEGMKKANEATNFKAKIEVVSTLFSTKSDFTKNNSKKDLLFLSDDLYHYKEKPENTNITLQLSEPKINSTRAFYDANNPLEYGVHKHELEHHHHHH | soluble
MNTLLLDKGEQQVHLNLKYANRHGLIAGATGTGKTVSLMSLAEGFSRQGVPVFITDIKGDISGLGVAGTPNDKLLQRAAEIGVEGYQTEANPVVFWDLAGIQGHPLRTTVSEMGPTLLGRILELNDTQSSILDIVFQLADDQGLLLLDLDDLRAMLNLVADERKDISAKYGLISAQSLAAIQRSVLGLERDGGKDFFGEPALQLEDLMRTNLQGRGIINLLAANKLILTPNLYSSFLLWLLSELFENLPEVGDLDKPKLVFFIDEAHLLFEGCPASLLKRIEQIMRLIRSKGVGVYFCSQFPDDIPNEILGQLGNRIQHALRAYTPRDQKAVKTAAETFVSNPKLVVSEVISQLAVGEALVSTLAEKGVPTMVERTLIAPPRCRMGPANPEELTAIRALSPIGGKYDTLINRESAYERLNQRHTDETNGVNTAQPAANEAEQGWLSELIFGNKRRQGLAETLSKQAARTVGNQLGKQILRGLLGGILGKSTRR | not soluble
GPGSMLDAATGKSKGFGFVLFDEEEKGAKAYKALNRKMTRACGHSFTLVIYPSNHNGKIFTEESNALYIRNIPISIGQEKMERFLRTFGNLIYFAMREDHYGNPVWVVYAEYETVDDAKNALAKLHGNNTYFHGSVPILAKFEDSDDAKKERRRRRDGMQTHDRTAGAFFRHRSATTRTLDRFTPLPRR | not soluble
MAFHHGRRCRITPLPETESLQESKKMNINELGARIDRPTIRELIAYATCRNRPISNSTLLRMEKDGRIPCRLKTPLTSPVWDTREVLEALGLQQ | not soluble
MSLISIVVLYYSRHGSTQALARQIARGVESVEGCQALLRTVAELDGTASNSDPYLSLDELKQCDGLALGSPVWFGNMAAPLKHFWDQTTPLWLSGALIDKPACVFTSSSTLHGGQETTQQSMMLPLLHHGMLILGIPYSEPALHTTQSGGTPYEGHHHHHH | not soluble
MGHHHHHHSHMAGPVKDREAFQRLNFLYQAAHCVLAQDPENQALARFYCYTERTIAKRLVLRRDPSVKRTLCRGCSSLLVPGLTCTQRQRRCRGQRWTVQTCLTCQRSQRFLNDPGHLLWGDRPEAQLGSQADSKPLQPLPNTAHSISDRLPEEKMQTQGSSNQ | not soluble
MDAHLVQAKKTSTASELSDSSLTFPFIGDYLSSPSLTTSDYVSDCSNLTVEGPVPANQEFSSSDESSVYISSALRLADYAFTPDDNIRIKPDAVIVICTQCQHQIQDKFFLSIDGRNYHENCLQCSTCENPLSNKCFYKDKTFYCKGCYFRTHVTSTASSCRELGPKCASCDRTIQATDWVRRARNYVYHLACFSCNQCKRQLSTGEEYALQEGNLLCKQHFLELVEGDSGVSSQKAKTKRVRTTFAEDQLSVLQTYFNRDSNPDGADLEKIASMTGLSKRVTQVWFQNSRARQKKWHQKSEGDNGDSQRSSVGPSSPSQKSDSSSEMMYPTSVTTSVEDAIPDSIVILGSLQFD | not soluble
MITKLDIQEKDGFLTMKDFPMNCIFNKVKTGCGATTIALTNNENYIITVPTTELIENKCYPTKDADGNVKFWKKHERRAGLSPVVNNLFGLYGNFTLELKKKLKDYLSSVGVKKIICTYDKIDKLMEFINPKDFKLTIDEYHNFLKQYSFRDKAINGVLAHFKEFKSYCFLSATPIPNNLKPAIFNDIPEYIADWNTTDDITVYPYHTDKPYMVAAKFIKTYQAKGCLNVNGIESKEAYFFINSVTEIKAILKQTQLTEDDYRIICADNPKNRRTLEEYTISSSADAPKKFNFITSKSFEGVDFHSETGLCFVVSNVQNRHTLVSIDMDIPQIVGRIRTKSNPFRNKVVHIFNTKATDHYTTFEEMEQIVDKEVKAAQERADMLNNTKLSEAATKQQINEIKKVGIESYLSYQENKFVVNDMVAKLQLYSYYIATVVYQSDKSLRETYAQSGIVTTKGKWHIAPEKFVKELIVKPTFRELHKRYCEIKANPMTFDLQTIDIEHEYPILGRAYRQLGVKELKRLRTIKSIQEALGEA | not soluble
MAKKTSSKGKLPPGPFPLPIIGNLFQLELKNIPKSFTRLAQRFGPVFTLYVGSQRMVVMHGYKAVKEALLDYKDEFSGRGDLPAFHAHRDRGIIFNNGPTWKDIRRFSLTTLRNYGMGKQGNESRIQREAHFLLEALRKTQGQPFDPTFLIGCAPCNVIADILFRKHFDYNDEKFLRLMYLFNENFHLLSTPWLQLYNNFPSFLHYLPGSHRKVIKNVAEVKEYVSERVKEHHQSLDPNCPRDLTDCLLVEMEKEKHSAERLYTMDGITVTVADLFFAGTETTSTTLRYGLLILMKYPEIEEKLHEEIDRVIGPSRIPAIKDRQEMPYMDAVVHEIQRFITLVPSNLPHEATRDTIFRGYLIPKGTVVVPTLDSVLYDNQEFPDPEKFKPEHFLNENGKFKYSDYFKPFSTGKRVCAGEGLARMELFLLLCAILQHFNLKPLVDPKDIDLSPIHIGFGCIPPRYKLCVIPRSHHHH | soluble
MPDAVVIGAGPNGLVAANLLADAGWSVTVLEEQDEPGGAVRHDNGVDPDFTTDLFSSFYPLAAASPVLAGLHLEREGLRWSHAPRVLAHPLSDGRCAVLGRDLDDTAASLDTFADGDGAAWRELHDVWERLRPDLLDALFTPFPPVRAGARLAARLRAGGGLRLARSLVLPVRRLGEEEFRGEGGRLLLAGNALHADLAPEAAGSGGFGWLMSMLGQTYGFPVPVGGSGALTSALTQRLHRRGGVLRCGQRVSEVVVRQGRAVAVRTAGGETVPARRAVLADVSVPALYGTLVGSAHLPAQVLADLRRFQWDFATFKVDWALDGPVPWQADAASAAGTVHLADGVDELTRFAAQIAMRQVPDRPFALFGQMTTADATRSPEGTEAAWAYTHVPHRIAGDAGDAGLAGTWDAREQELMADRVERQVERFAPGFRSLIRARRILAPPTLQSLNANLYGGAINGGTTALHQQLVFRPIPGTGRPETPVANLFLASAGAHPGGGVHGAPGANAARAALRKHLPSGLTRAQRLLTRRNRKGERDTGFGGLEHHHHHH | not soluble
